{
  "source": "patent US20230140293A1",
  "assay_in_all_cases": "cell-based or functional assay",
  "key": {"[1]": {"molecular_target": "CH0505TF.gly4 Env, Env-pseudotyped virus produced in 293T cells (HIV-1)"}, "[2]": {"molecular_target": "HIV-1 426c.TM (N276D/N460D/N463D) Env on Env-pseudotyped virus produced in 293T cells (HIV-1)"}, "[3]": {"molecular_target": "HIV-1 Env 426c.SM (N276D), Env-pseudotyped virus produced in 293T cells (HIV-1 clade C strain 426c)"}, "[4]": {"molecular_target": "HIV-1 Env 426c, Env-pseudotyped virus produced in 293S GnTI- cells (Man5-enriched) (HIV-1 clade C strain 426c)"}, "[5]": {"molecular_target": "CH0505TF.G458Y Env, Env-pseudotyped virus produced in 293S GnTI- cells (Man5-enriched) (HIV-1)"}, "[6]": {"molecular_target": "HIV-1 Env 426c.TM (N276D.N460D.N463D), Env-pseudotyped virus produced in 293T cells (HIV-1 clade C strain 426c)"}, "[7]": {"molecular_target": "CH0505TF.gly3.276 Env, Env-pseudotyped virus produced in 293T cells (HIV-1)"}, "[8]": {"molecular_target": "HIV-1 426c.DM (N460D/N463D) Env on Env-pseudotyped virus produced in 293T cells (HIV-1)"}, "[9]": {"molecular_target": "HIV-1 Env 426c.DM (N460D.N463D), Env-pseudotyped virus produced in 293T cells (HIV-1 clade C strain 426c)"}, "[10]": {"molecular_target": "HIV-1 426c.DM (N460D/N463D) Env on Env-pseudotyped virus produced in 293s/GnTI-/- cells (Man5-enrichment) (HIV-1)"}, "[11]": {"molecular_target": "CH0505TF.gly3.461 Env, Env-pseudotyped virus produced in 293S GnTI- cells (Man5-enriched) (HIV-1)"}, "[12]": {"molecular_target": "CH0505TF.gly3.461 Env, Env-pseudotyped virus produced in 293T cells (HIV-1)"}, "[13]": {"molecular_target": "HIV-1 426c.SM (N276D) Env on Env-pseudotyped virus produced in 293T cells (HIV-1)"}, "[14]": {"molecular_target": "HIV-1 Env 426c.TM (N276D.N460D.N463D), Env-pseudotyped virus produced in 293S GnTI- cells (Man5-enriched) (HIV-1 clade C strain 426c)"}, "[15]": {"molecular_target": "CH0505TF.G458Y Env, Env-pseudotyped virus produced in 293T cells (HIV-1)"}, "[16]": {"molecular_target": "HIV-1 clade C strain 426c Env on Env-pseudotyped virus produced in 293T cells (HIV-1)"}, "[17]": {"molecular_target": "CH0505TF Env, Env-pseudotyped virus produced in 293T cells (HIV-1)"}, "[18]": {"molecular_target": "CH0505TF Env, Env-pseudotyped virus produced in 293S GnTI- cells (Man5-enriched) (HIV-1)"}, "[19]": {"molecular_target": "HIV-1 426c.TM (N276D/N460D/N463D) Env on Env-pseudotyped virus produced in 293s/GnTI-/- cells (Man5-enrichment) (HIV-1)"}, "[20]": {"molecular_target": "HIV-1 Env 426c.TM4 (S278R.G471S.N460D.N463D), Env-pseudotyped virus produced in 293T cells (HIV-1 clade C strain 426c)"}, "[21]": {"molecular_target": "HIV-1 Env 426c.DM (N460D.N463D), Env-pseudotyped virus produced in 293S GnTI- cells (Man5-enriched) (HIV-1 clade C strain 426c)"}, "[22]": {"molecular_target": "HIV-1 426c.SM (N276D) Env on Env-pseudotyped virus produced in 293s/GnTI-/- cells (Man5-enrichment) (HIV-1)"}, "[23]": {"molecular_target": "CH0505TF.gly4 Env, Env-pseudotyped virus produced in 293S GnTI- cells (Man5-enriched) (HIV-1)"}, "[24]": {"molecular_target": "HIV-1 Env 426c, Env-pseudotyped virus produced in 293T cells (HIV-1 clade C strain 426c)"}, "[25]": {"molecular_target": "HIV-1 Env 426c.SM (N276D), Env-pseudotyped virus produced in 293S GnTI- cells (Man5-enriched) (HIV-1 clade C strain 426c)"}, "[26]": {"molecular_target": "HIV-1 Env 426c.TM4 (S278R.G471S.N460D.N463D), Env-pseudotyped virus produced in 293S GnTI- cells (Man5-enriched) (HIV-1 clade C strain 426c)"}, "[27]": {"molecular_target": "CH0505TF.gly3.197 Env, Env-pseudotyped virus produced in 293S GnTI- cells (Man5-enriched) (HIV-1)"}, "[28]": {"molecular_target": "HIV-1 clade C strain 426c Env on Env-pseudotyped virus produced in 293s/GnTI-/- cells (Man5-enrichment) (HIV-1)"}, "[29]": {"molecular_target": "CH0505TF.gly3.276 Env, Env-pseudotyped virus produced in 293S GnTI- cells (Man5-enriched) (HIV-1)"}, "[30]": {"molecular_target": "CH0505TF.gly3.197 Env, Env-pseudotyped virus produced in 293T cells (HIV-1)"}},
  "data": [
    {"substance": "PGDM1400 (antibody)", "values": [
      {"measurement": "IC50 (µg/ml) in TZM-bl", "setting": "[1]", "result": 0.016, "unit": "µg/mL"},
      {"measurement": "ID50/IC50 in TZM-bl", "setting": "[2]", "result": "> 25", "unit": "µg/mL"},
      {"measurement": "IC50 (µg/ml) in TZM-bl", "setting": "[3]", "result": "> 25", "unit": "µg/mL"},
      {"measurement": "IC50 (µg/ml) in TZM-bl", "setting": "[4]", "result": "> 5", "unit": "µg/mL"},
      {"measurement": "IC50 (µg/ml) in TZM-bl", "setting": "[5]", "result": 0.002, "unit": "µg/mL"},
      {"measurement": "IC50 (µg/ml) in TZM-bl", "setting": "[6]", "result": "> 25", "unit": "µg/mL"},
      {"measurement": "IC50 (µg/ml) in TZM-bl", "setting": "[7]", "result": 0.02, "unit": "µg/mL"},
      {"measurement": "ID50/IC50 in TZM-bl", "setting": "[8]", "result": "> 25", "unit": "µg/mL"},
      {"measurement": "IC50 (µg/ml) in TZM-bl", "setting": "[9]", "result": "> 25", "unit": "µg/mL"},
      {"measurement": "ID50/IC50 in TZM-bl", "setting": "[10]", "result": "> 5", "unit": "µg/mL"},
      {"measurement": "IC50 (µg/ml) in TZM-bl", "setting": "[11]", "result": 0.008, "unit": "µg/mL"},
      {"measurement": "IC50 (µg/ml) in TZM-bl", "setting": "[12]", "result": 0.04, "unit": "µg/mL"},
      {"measurement": "ID50/IC50 in TZM-bl", "setting": "[13]", "result": "> 25", "unit": "µg/mL"},
      {"measurement": "IC50 (µg/ml) in TZM-bl", "setting": "[14]", "result": "> 5", "unit": "µg/mL"},
      {"measurement": "IC50 (µg/ml) in TZM-bl", "setting": "[15]", "result": 0.006, "unit": "µg/mL"},
      {"measurement": "ID50/IC50 in TZM-bl", "setting": "[16]", "result": "> 25", "unit": "µg/mL"},
      {"measurement": "IC50 (µg/ml) in TZM-bl", "setting": "[17]", "result": 0.006, "unit": "µg/mL"},
      {"measurement": "IC50 (µg/ml) in TZM-bl", "setting": "[18]", "result": 0.007, "unit": "µg/mL"},
      {"measurement": "ID50/IC50 in TZM-bl", "setting": "[19]", "result": "> 5", "unit": "µg/mL"},
      {"measurement": "IC50 (µg/ml) in TZM-bl", "setting": "[20]", "result": "> 5", "unit": "µg/mL"},
      {"measurement": "IC50 (µg/ml) in TZM-bl", "setting": "[21]", "result": "> 5", "unit": "µg/mL"},
      {"measurement": "ID50/IC50 in TZM-bl", "setting": "[22]", "result": "> 5", "unit": "µg/mL"},
      {"measurement": "IC50 (µg/ml) in TZM-bl", "setting": "[23]", "result": 0.007, "unit": "µg/mL"},
      {"measurement": "IC50 (µg/ml) in TZM-bl", "setting": "[24]", "result": "> 25", "unit": "µg/mL"},
      {"measurement": "IC50 (µg/ml) in TZM-bl", "setting": "[25]", "result": "> 5", "unit": "µg/mL"},
      {"measurement": "IC50 (µg/ml) in TZM-bl", "setting": "[26]", "result": "> 5", "unit": "µg/mL"},
      {"measurement": "IC50 (µg/ml) in TZM-bl", "setting": "[27]", "result": 0.003, "unit": "µg/mL"},
      {"measurement": "ID50/IC50 in TZM-bl", "setting": "[28]", "result": "> 5", "unit": "µg/mL"},
      {"measurement": "IC50 (µg/ml) in TZM-bl", "setting": "[29]", "result": 0.004, "unit": "µg/mL"},
      {"measurement": "IC50 (µg/ml) in TZM-bl", "setting": "[30]", "result": 0.01, "unit": "µg/mL"}
    ]},
    {"substance": "VRC03 (antibody)", "values": [
      {"measurement": "IC50 (µg/ml) in TZM-bl", "setting": "[4]", "result": 0.014, "unit": "µg/mL"},
      {"measurement": "IC50 (µg/ml) in TZM-bl", "setting": "[14]", "result": 0.003, "unit": "µg/mL"},
      {"measurement": "IC50 (µg/ml) in TZM-bl", "setting": "[20]", "result": 0.003, "unit": "µg/mL"},
      {"measurement": "IC50 (µg/ml) in TZM-bl", "setting": "[21]", "result": 0.005, "unit": "µg/mL"},
      {"measurement": "IC50 (µg/ml) in TZM-bl", "setting": "[25]", "result": 0.003, "unit": "µg/mL"},
      {"measurement": "IC50 (µg/ml) in TZM-bl", "setting": "[26]", "result": "< 0.002", "unit": "µg/mL"}
    ]},
    {"substance": "VRC04 (antibody)", "values": [
      {"measurement": "IC50 (µg/ml) in TZM-bl", "setting": "[4]", "result": 0.18, "unit": "µg/mL"},
      {"measurement": "IC50 (µg/ml) in TZM-bl", "setting": "[14]", "result": 0.01, "unit": "µg/mL"},
      {"measurement": "IC50 (µg/ml) in TZM-bl", "setting": "[20]", "result": 0.013, "unit": "µg/mL"},
      {"measurement": "IC50 (µg/ml) in TZM-bl", "setting": "[21]", "result": 0.05, "unit": "µg/mL"},
      {"measurement": "IC50 (µg/ml) in TZM-bl", "setting": "[25]", "result": 0.02, "unit": "µg/mL"},
      {"measurement": "IC50 (µg/ml) in TZM-bl", "setting": "[26]", "result": "< 0.002", "unit": "µg/mL"}
    ]}
  ]
}
